Laboratory results: US12269859B2, “Synthetic immune receptors and methods of use thereof” (Angeles Therapeutics, Inc., priority 2016, dated 2025)

Tested on: target antigen-expressing cell line
Test: Jurkat NFAT-GFP assay, coculture with target cell lines expressing the respective target antigen (summary Table 10A)
Type: cell-based, human
Design: key: The signs +/−, +, 2+ etc. after the name of the cell lines indicate the relative degree of positivity on the Jurkat-NFAT-GFP assay as measured by the % GFP positive cells; +: relative degree of positivity on the Jurkat-NFAT-GFP assay as measured by the % GFP positive cells; 2+: relative degree of positivity on the Jurkat-NFAT-GFP assay as measured by the % GFP positive cells
Outline: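 Readout is % GFP+ cells by FACS, graded +/− to 2+ relative to parental reporter cells. Jurkat-NFAT-GFP cells stably transduced with SIR constructs (puromycin-selected) were mixed with target-antigen-expressing cell lines at roughly 1:2 effector:target and cocultured ~4–18 h.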

B1: 111815-E04 (protein)
chain: MALPVTALLLPLALLLHAARPDEFEVQLVESGGGLVQAGGSLRLSCVASGISSSKRNMGWYRQAPGKQRESVATISSGGNKDYTDAVKDRFTISRDTTKNTVYLQMNSLKPEDTAVYYCKIEAGTGWATRRGYTYWGQGTLVTVSSLEGKPIPNPLLGLDSTGSGEDLKNVFPPEVAVFEPSEAEISHTQKATLVCLATGFYPDHVELSWWVNGKEVHSGVCTDPQPLKEQPALNDSRYCLSSRLRVSATFWQNPRNHFRCQVQFYGLSENDEWTQDRAKPVTQIVSAEAWGRADCGFTSESYQQGVLSATILYEILLGKATLYAVLVSALVLMAMVKRKDSRGRAKRSGSGATNFSLLKQAGDVEENPGPTSMDWIWRILFLVGAATGAHSFEVQLVESGGGSVQAGGSLRLSCTTSGRALNMYVMGWFRQAPGNEREFVAATSSSGGSTSYPDSVKGRFTISRDNAKNTVYLQMNSLKPEDTAAYRCAASPYVSTPTMNILEEYRYWGLGTQVTVSSTREQKLISEEDGSGIQNPDPAVYQLRDSKSSDKSVCLFTDFDSQTNVSQSKDSDVYITDKCVLDMRSMDFKSNSAVAWSNKSDFACANAFNNSIIPEDTFFPSPESSCDVKLVEKSFETDTNLNFQNLSVIGFRILLLKVAGFNLLMTLRLWSSRAKRSGSGVKQTLNFDLLKLAGDVESNPGPSRGHMTEYKPTVRLATRDDVPRAVRTLAAAFADYPATRHTVDPDRHIERVTELQELFLTRVGLDIGKVWVADDGAAVAVWTTPESVEAGAVFAEIGPRMAELSGSRLAAQQQMEGLLAPHRPKEPAWFLATVGVSPDHQGKGLGSAVVLPGVEAAERAGVPAFLETSAPRNLPFYERLGFTVTADVEVPEGPRTWCMTRKPGA
modifications: Polynucleotide encoding a Synthetic Immune Receptor (SIR)
NFAT-GFP ASSAY Positive Cell lines (coculture with Bv173 cells): (2+)
NFAT-GFP ASSAY Positive Cell lines (coculture with U266 cells): U266 (2+), Bv173

B2: 010417-V07 (protein)
chain: MALPVTALLLPLALLLHAARPLEGKPIPNPLLGLDSTGSGEDLKNVFPPEVAVFEPSKAEIAHTQKATLVCLATGFYPDHVELSWWVNGKEVHSGVCTDPQPLKEQPALNDSRYCLSSRLRVSATFWQNPRNHFRCQVQFYGLSENDEWTQDRAKPVTQIVSAEAWGRADCGITSASYHQGVLSATILYEILLGKATLYAVLVSALVLMAMVKRKDSRGRAKRSGSGATNFSLLKQAGDVEENPGPTSTMALPVTALLLPLALLLHAARPDIQMTQSPSSLSASVGDRVTITCKASQDVGIAVAWYQQKPGKVPKLLIYWASTRHTGVPDRFSGSGSGTDFTLTISSLQPEDVATYYCQQYSSYPYTFGQGTKVEIKGGGGSGGGGSGGGGSEVQLVESGGGLVQPGGSLRLSCAASGFDFSRYWMSWVRQAPGKGLEWIGEINPDSSTINYAPSLKDKFIISRDNAKNSLYLQMNSLRAEDTAVYYCARPDGNYWYFDVWGQGTLVTVSSTREAAAKEIVLTQSPATLSLSPGERATLSCSASSSVSYMHWYQQKPGQAPRLLIYDTSKLASGIPARFSGSGSGTDFTLTISSLEPEDVAVYYCFQGSVYPFTFGQGTKLEIKRGGGGSGGGGSGGGGSQVQLQESGPGLVKPSQTLSLTCTVSGGSISTSGMGVGWIRQHPGKGLEWIGHIWWDDDKRYNPALKSRVTISVDTSKNQFSLKLSSVTAADTAVYYCARMELWSYYFDYWGQGTLVTVSSTREQKLISEEDGSGIQNPDPAVYQLRDSKSSDKSVCLFTDFDSQTNVSQSKDSDVYITDKCVLDMRSMDFKSNSAVAWSNKSDFACANAFNNSIIPEDTFFPSSDVPCDVKLVEKSFETDTNLNFQNLSVIGFRILLLKVAGFNLLMTLRLWSSRAKRSGSGVKQTLNFDLLKLAGDVESNPGPSRGHMTEYKPTVRLATRDDVPRAVRTLAAAFADYPATRHTVDPDRHIERVTELQELFLTRVGLDIGKVWVADDGAAVAVWTTPESVEAGAVFAEIGPRMAELSGSRLAAQQQMEGLLAPHRPKEPAWFLATVGVSPDHQGKGLGSAVVLPGVEAAERAGVPAFLETSAPRNLPFYERLGFTVTADVEVPEGPRTWCMTRKPGA
NFAT-GFP ASSAY Positive Cell lines (coculture with L363 cells): (+), L363 (+), U266
NFAT-GFP ASSAY Positive Cell lines (coculture with NALM6 cells): (+), L363 (+), U266
NFAT-GFP ASSAY Positive Cell lines (coculture with RAJI cells): RAJI (+), NALM6
NFAT-GFP ASSAY Positive Cell lines (coculture with U266 cells): (+)

B3: 111915-U05 (protein)
chain: MALPVTALLLPLALLLHAARPDEFEVQLVESGGGLVQAGGSLRLSCVASGISSSKRNMGWYRQAPGKQRESVATISSGGNKDYTDAVKDRFTISRDTTKNTVYLQMNSLKPEDTAVYYCKIEAGTGWATRRGYTYWGQGTLVTVSSLEGKPIPNPLLGLDSTGSGEDLKNVFPPEVAVFEPSEAEISHTQKATLVCLATGFYPDHVELSWWVNGKEVHSGVCTDPQPLKEQPALNDSRYCLSSRLRVSATFWQNPRNHFRCQVQFYGLSENDEWTQDRAKPVTQIVSAEAWGRADCGFTSESYQQGVLSATILYEILLGKATLYAVLVSALVLMAMVKRKDSRGRAKRSGSGATNFSLLKQAGDVEENPGPTSMDWIWRILFLVGAATGAHSFEVQLVESGGGSVQPGGSLTLSCGTSGRTFNVMGWFRQAPGKEREFVAAVRWSSTGIYYTQYADSVKSRFTISRDNAKNTVYLEMNSLKPEDTAVYYCAADTYNSNPARWDGYDFRGQGTQVTVSSTREQKLISEEDGSGIQNPDPAVYQLRDSKSSDKSVCLFTDFDSQTNVSQSKDSDVYITDKCVLDMRSMDFKSNSAVAWSNKSDFACANAFNNSIIPEDTFFPSPESSCDVKLVEKSFETDTNLNFQNLSVIGFRILLLKVAGFNLLMTLRLWSSRAKRSGSGVKQTLNFDLLKLAGDVESNPGPSRGHMTEYKPTVRLATRDDVPRAVRTLAAAFADYPATRHTVDPDRHIERVTELQELFLTRVGLDIGKVWVADDGAAVAVWTTPESVEAGAVFAEIGPRMAELSGSRLAAQQQMEGLLAPHRPKEPAWFLATVGVSPDHQGKGLGSAVVLPGVEAAERAGVPAFLETSAPRNLPFYERLGFTVTADVEVPEGPRTWCMTRKPGA
modifications: Polynucleotide encoding a Synthetic Immune Receptor (SIR)
NFAT-GFP ASSAY Positive Cell lines (coculture with Bv173 cells): (+/−), THP1 (+/−),
NFAT-GFP ASSAY Positive Cell lines (coculture with KG1 cells): KG1 (2+)
NFAT-GFP ASSAY Positive Cell lines (coculture with MOLM13 cells): MOLM13 (+/−), Bv173
NFAT-GFP ASSAY Positive Cell lines (coculture with THP1 cells): (+/−), THP1 (+/−),

B4: 100615-C06 (protein)
chain: MALPVTALLLPLALLLHAARPDIQMTQSPSSLSASVGDRVTITCRASQGIRNNLAWYQQKPGKAPKRLIYAASNLQSGVPSRFTGSGSGTEFTLIVSSLQPEDFATYYCLQHHSYPLTSGGGTKVELEGKPIPNPLLGLDSTGSGEDLKNVFPPEVAVFEPSKAEIAHTQKATLVCLATGFYPDHVELSWWVNGKEVHSGVCTDPQPLKEQPALNDSRYCLSSRLRVSATFWQNPRNHFRCQVQFYGLSENDEWTQDRAKPVTQIVSAEAWGRADCGITSASYHQGVLSATILYEILLGKATLYAVLVSALVLMAMVKRKDSRGRAKRSGSGATNFSLLKQAGDVEENPGPTSMDWIWRILFLVGAATGAHSFEEVQVLESGGGLVQPGGSLRLSCAASGFTFSSYAMSWVRQAPGKGLEWVSAISGSGGSTNYADSVKGRFTISRDNSKNTLYLQMNSLRAEDTAVYYCAGSSGWSEYWGQGTLVTVSSTREQKLISEEDGSGIQNPDPAVYQLRDSKSSDKSVCLFTDFDSQTNVSQSKDSDVYITDKCVLDMRSMDFKSNSAVAWSNKSDFACANAFNNSIIPEDTFFPSSDVPCDVKLVEKSFETDTNLNFQNLSVIGFRILLLKVAGFNLLMTLRLWSSRAKRSGSGVKQTLNFDLLKLAGDVESNPGPSRGHMTEYKPTVRLATRDDVPRAVRTLAAAFADYPATRHTVDPDRHIERVTELQELFLTRVGLDIGKVWVADDGAAVAVWTTPESVEAGAVFAEIGPRMAELSGSRLAAQQQMEGLLAPHRPKEPAWFLATVGVSPDHQGKGLGSAVVLPGVEAAERAGVPAFLETSAPRNLPFYERLGFTVTADVEVPEGPRTWCMTRKPGA
modifications: Synthetic Immune Receptor (SIR)
NFAT-GFP ASSAY Positive Cell lines (coculture with HeLa (Hela) cells): (+/−)
NFAT-GFP ASSAY Positive Cell lines (coculture with LoVo cells): LoVo (+/−), HeLa

B5: 111516-M03 (protein)
chain: MALPVTALLLPLALLLHAARPLEGKPIPNPLLGLDSTGSGEDLKNVFPPEVAVFEPSKAEIAHTQKATLVCLATGFYPDHVELSWWVNGKEVHSGVCTDPQPLKEQPALNDSRYCLSSRLRVSATFWQNPRNHFRCQVQFYGLSENDEWTQDRAKPVTQIVSAEAWGRADCGITSASYHQGVLSATILYEILLGKATLYAVLVSALVLMAMVKRKDSRGRAKRSGSGATNFSLLKQAGDVEENPGPTSMALPVTALLLPLALLLHAARPDIVLTQSPLSLAVSLGQPAIISCKASQSVSFAGTSLMHWYHQKPGQQPRLLIYRASNLEAGVPDRFSGSGSKTDFTLTISPVEAEDAATYYCQQSREYPYTFGGGTKLEIKRGGGGSGGGGSGGGGSQVQLVQSGAEVVKPGASVKISCKASGYTFTGYFMNWVKQSPGQSLEWIGRIHPYDGDTFYNQKFQGKATLTVDKSSNTAHMELLSLTSEDFAVYYCTRYDGSRAMDYWGQGTTVTVSSTREQKLISEEDGSGIQNPDPAVYQLRDSKSSDKSVCLFTDFDSQTNVSQSKDSDVYITDKCVLDMRSMDFKSNSAVAWSNKSDFACANAFNNSIIPEDTFFPSSDVPCDVKLVEKSFETDTNLNFQNLSVIGFRILLLKVAGFNLLMTLRLWSSRAKRSGSGVKQTLNFDLLKLAGDVESNPGPSRGHMTEYKPTVRLATRDDVPRAVRTLAAAFADYPATRHTVDPDRHIERVTELQELFLTRVGLDIGKVWVADDGAAVAVWTTPESVEAGAVFAEIGPRMAELSGSRLAAQQQMEGLLAPHRPKEPAWFLATVGVSPDHQGKGLGSAVVLPGVEAAERAGVPAFLETSAPRNLPFYERLGFTVTADVEVPEGPRTWCMTRKPGA
modifications: Polynucleotide encoding a Synthetic Immune Receptor (SIR)
NFAT-GFP ASSAY Positive Cell lines (coculture with LoVo cells): (+/−)
NFAT-GFP ASSAY Positive Cell lines (coculture with SKOV3 cells): SKOV3 (+), LoVo
